This note sets out measurements from PMC3355305, “Localized Dimerization and Nucleoid Binding Drive Gradient Formation by the Bacterial Cell Division Inhibitor MipZ” (Molecular Cell, 2012).

The test deals with MipZ or its mutant derivatives (immobilized, homotypic). As to the kind of experiment: SPR analysis of MipZ self-association / dimer dissociation. The format is binding, Caulobacter crescentus. On the procedure:
Figure 2 Biochemical Analysis of MipZ Dimerization (A) ATPase cycle of MipZ. See the main text for details. (B and C) SPR analysis of MipZ self-association. […] After the binding phase, the chip was washed with buffer lacking protein and nucleotides to follow the dissociation reaction. The rate constants (koff) determined for the dissociation of the MipZ and MipZ-D42A complexes are 0.83 min^−1 and 0.067 min^−1, respectively. (D) Nucleotide-dependent dimerization of MipZ. MipZ-D42A was incubated with ADP (blue), ATP (orange) or ATPγS (red) and subjected to size exclusion chromatography. (E) ATPase activity of MipZ and its mutant derivatives. The graph gives the average turnover rate (kapp, average turnovers/min per molecule of MipZ) of the different MipZ derivatives (6 μM). Data represent the average of at least three independent experiments (±SD). Note that consistent with a critical role of the metal cofactor in dimerization and catalysis Mg^2+ was required for ATP turnover (Figure S2H). (F) Concentration dependence of the MipZ ATPase activity. The average turnover rate of MipZ (kapp) was determined at the indicated protein concentrations. […]

B1: MipZ: P loop ATPase and cell division inhibitor of Caulobacter crescentus; hexahistidine-tagged in vitro, YFP fusion in FRAP (protein)
chain: MAETRVIVVGNEKGGAGKSTIAVHLVTALLYGGAKVAVIDLDLRQRTSARFFENRRAWLDNKKIELPEPLALNLSDNDVALAERPEEEQVAGFEAAFARAMAECDFILIDTPGGDSAITRMAHGRADLVVTPMNDSFVDFDMLGTVDPVTLELTKPSLYSLTVWEGRKQRALSGQRQAMDWVVLRNRLATTEARNRKRLEDRLNALAKRVGFRIGPGLRDRVIYRELFPFGLTIADLSPQVRPVPVSLQHLAARQELRALMHSLGLSAYSGETMLAAQ
modifications: left off: His6, end not stated, state not stated
notes: hexahistidine-tagged in vitro, YFP fusion in FRAP
Regarding B1, the “dissociation rate constant (koff) of the dimeric complex” value runs as follows: (in the presence of 1 mM ATPγS) 0.003 s⁻¹; (in the presence of ATP, chip washed with buffer lacking protein and nucleotides) 0.0138 s⁻¹.
